Assay results as given in PMC9938897.

Legend:
[1] = target: CvkR (Alr3614) (Anabaena sp. PCC 7120) (UniProt A0ACD6B984); assay: DNase I footprinting; settings: EMSA: 10 mM Tris-HCl pH 8.0, 25 mM MgCl2, 50 mM NaCl, 1 mM DTT, 1 mM EDTA, 50 ug/mL poly(dI-dC), 0.01% NP-40, 10% glycerol, 2 nM probe, 25 C 30 min …
[2] = target: CvkRmut (R19A-R20A-Q23A-K40A-R42A-N66A) (Anabaena (Nostoc) sp. PCC 7120); assay: SEC; analytical gel filtration, Superdex 75 10/300 GL, 10 mM Tris-HCl pH 8.8, 100 mM NaCl, 2 mM beta-mercaptoethanol; ~500 uL untagged protein at ~0.6 mg/mL; calibrated with LMW standards; self-association (dimer)
[3] = target: CvkR (Alr3614), MerR-type transcriptional regulator of the Anabaena sp. PCC 7120 CAST system, 150-residue form CvkR-S (Anabaena (Nostoc) sp. PCC 7120); assay: as above
[4] = target: CvkR R42E (Anabaena (Nostoc) sp. PCC 7120); assay: as above

Chain of CvkR (Alr3614) (Anabaena sp. PCC 7120) (A0ACD6B984 entry or part of it): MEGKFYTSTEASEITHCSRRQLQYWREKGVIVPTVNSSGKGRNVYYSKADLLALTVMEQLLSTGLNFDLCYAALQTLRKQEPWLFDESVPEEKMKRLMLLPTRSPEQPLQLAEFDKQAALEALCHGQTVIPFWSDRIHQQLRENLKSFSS

Substance: AACTCCTTTCTCTCGCCAATACTGCAACTGGCGGCGAGAGCAATGAGTAATTTCTGATGCTTCTGTGCTTGTGTAGAACTTTCCTTCCATAAGAAACATCCTATAGAAGCATCTTCTAAAACACATTAGTGCTTTGTATAACATTATGTGTTTTGTATGGTATTTTATTTTTATGAGCCAAAAAACTATTCAATGTCGCTTAATTGCCAGTGAATCTACCCGCCAAAAACTCTGGAAGTTAATGGCAGAATCGAACACACCTCTAATTAACGAACTGCTTCAGCAGC (double strand) [Pcas12k footprint probe]
- binding [1]: binds

Substance: CvkRmut (R19A-R20A-Q23A-K40A-R42A-N66A) (natural protein)
- stoichiometry N [2]: 2

Substance: CvkR (Alr3614), MerR-type transcriptional regulator of the Anabaena sp. PCC 7120 CAST system, 150-residue form CvkR-S (natural protein)
- stoichiometry N [3]: 2

Substance: CvkR R42E (natural protein)
- stoichiometry N [4]: 2
